Source: US20040229289A1, “Antigen binding peptides (abtides) from peptide libraries” (Cytogen Corporation, priority 1994, published 2004)
Where no end group is shown, it is not given here.

B1: MP-1 (peptide)
peptide: GAPVWRGNPRWRGPGGFKWPGCGNGPMCNTFTPARGGSRNNGP
notes: eluted with excess PEM peptide; also called MPI; PEM abtide MP-1

Target: T1, PEM peptide (human)
T1 peptide: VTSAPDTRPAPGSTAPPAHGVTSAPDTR
Test: phage ELISA on PEM
GEPVWCRHSGGRVQGGLDWLGCGDGPLRYTVTPARGGPSKHGP [E64]: binds.
GSSVCGGQPSGRGFGGLPGPGCGNGPTSNTLTSARGGFPNKGL [E27]: no binding.
AGRELRQDEGEGGAGADVARLREGPICSTFTPARGGSCPSGL [E43]: no binding.
GAPLWQGDPADEVLGGSMIPGCGIGALSQTFTPTPGGSRKNVT [E37]: no binding.
SSGVGNGKPRSWAPDALNGGCGNIQFANTITPDRGGSCNQTL [E24]: no binding.
GQPECRITSGCCGTDGNKWLGCGKVDMCNTLNPAVGCHGTNGS [E34]: no binding.
RSAVSEGKPREIVPGGCMWPGCGNGRKSNTLTHGPEQFQEIEP [E15]: no binding.
VSRAWSGKPRLMGSHGLNCPGCGKGHSGIMFIPDPAGSANTPP [E67]: binds.
CAPMWSGKPPWCVGGGVKFRGCGNRPDCNIITPRLVESRDKAL [E68]: binds.
STPGCSGYSGSGDPRCLTCTACGNGHTRKTLTPAHGRSTHKEP [E72]: no binding.
GLSLVRGDSWGSGAGGWKRHGCGHGPMYNPQTPARGGSCTRNT [E66]: binds.
GDPECRGKPRGRWTGSLACTGCGNGPNSKICTRARGVSRNKGP [E60]: no binding.
QARVSMAISCRSGPSDLMHQGCGYGPRCNPDTTDSGGSHTNTP [E49]: no binding.
GTRVPPGFALRGGRDGLSWAGCGKAPISKTYTSARGRSRKKGS [E3]: no binding.
ADPVCSRKPDGGGLRGLRWPGCGKGPILYNVTAARGGSRNNGP [E70]: binds.

Target: T1, PEM peptide
Test: phage panning on PEM peptide, D38 library, acid eluted
Protocol: (§1) A peptide comprising this sequence was synthesized and used to isolate abtides from TSAR peptide libraries by methods analogous to those described above. In these experiments, the specific TSAR libraries used were R26, D38 and DC43. See FIGS. 10-12 for description of these libraries. Phage bound to PEM were eluted by either standard acid elution methods, stringent acid elution methods where phage were incubated with the PEM peptide for only 10 minutes prior to washing and elution, or were eluted using excess PEM peptide. Phage from each library were isolated that express peptides capable of binding to PEM.
IDSSKNRISGTGYLSFPHIRHANRRHMADDSNLAPGPS (acid eluted) [V1]: binds.
DQIGSRPQTTSRSISGSWWENAKTLWQQDYAFSAPNAA (acid eluted) [MA-32]: binds.
VQLDDTSPRASGQETSQSEYDARPLLSKFAIPRPWSR (acid eluted) [V21]: binds.
LSDAWGNFTTSYRDSAGFPSHAMTTSQGGKRNHASRFP (acid eluted) [V23]: binds.

Target: T1, PEM peptide
Test: phage panning on PEM peptide, R26 library, acid eluted
Protocol: as §1
SSSIFDYAPFSWGSAGLSNSSINVFERS (acid eluted) [A54]: binds.
SLGLPWIDVFGRSSAEPWPFGRTNLPRS (acid eluted) [A39]: binds.
SVHGAFLDSFFPWAADGPHGRGRLTSF (acid eluted) [A16]: binds.
SFMDYFFHTPEPKPAGYPNAYTDPKHPA (acid eluted) [A15]: binds.

Target: T2, mimetope peptide 7E11-9.5 (not fully specified)
T2 peptide: LYANPGMYSRLHSPA
Test: phage panning of TSAR-9 library on plate-bound 7E11-9.5 peptide
Protocol: Next, the mimetope peptide was used to isolate abtides from a peptide library. Fifty to one hundred microliters of the solution of this peptide was used to coat the wells of a 96-well plate, the wells were blocked with 0.5% BSA in PBS, and the wells were used for screening. An aliquot of the TSAR-9 random phage library (containing approximately 3×10¹⁰ phage particles) was used as in the initial screening, and 4 rounds of screening were performed. After the first two rounds, the phage were amplified. Two more rounds of screening were then performed. By this procedure, phage from the TSAR-9 library that expressed peptides capable of binding to the 7E11-9.5 mimetope peptide were identified and isolated. The peptides containing the binding domains of these phage are abtides and were discovered to mimic the binding specificities of monoclonal antibody 7E11-C5. These abtides are termed “7E11-C5 abtides.”
GHSNYCFVSTLGMPIVGFPSINARGLIHYGGSDPRLAA [7E11-C5 abtide clone 16]: binds.
RCSPIWGISYPFGLLSSNPGVCHSSDAETNIRNDILTT [7E11-C5 abtide clone 13]: binds.

Target: T1, PEM peptide
Test: phage panning on PEM peptide, D38 library, stringent acid elution
Protocol: as §1
YSATLWDQFGSRQVELWSNRHASSALPFASRASVLGSR (stringent acid elution) [V40]: binds.
PLTSGSSSEYRNRDDCPVYKYATNCPRLNFSPSRYSPF (stringent acid elution) [V45]: binds.
STCIGAEGEWKSFHNFLQCRDATSTSSSTLDPTALRFG (stringent acid elution) [V27]: binds.
GDAYGGIFSRPRQGLADSYIHASYTGKHFFRGPRPPTR (stringent acid elution) [V32]: binds.

Target: T1, PEM peptide
Test: phage panning on PEM peptide, DC43 library, stringent acid elution
Protocol: as §1
WSIGTHTGPEGKFRIPCDRSGCGGTTLTHGGLNSSPTGQHERP (stringent acid elution) [V44]: binds.
DPCEDGYWLSSVGRAGASIRGCGAIRRSSRTLTAEYSTRASNH (stringent acid elution) [V39]: binds.
SSASSGCLGRAEHLDLDSVWGCGSQADMSRRYSPWYGRPRTGV (stringent acid elution) [V7]: binds.
NVMWSSSKAGIRDCSQVPPGGCGPVNRHRASPPLTPFRHGSIR (stringent acid elution) [V4]: binds.
GSKRSCWGTTISNYFRPVPEGCGSASSINPNTNTGRLPSLHRQ (stringent acid elution) [V10]: binds.

Target: T1, PEM peptide
Test: phage panning on PEM peptide, R26 library, eluted with excess PEM peptide
Protocol: as §1
RAELVNWYEWFHVTAEAETPVINSHNMT (eluted with excess PEM peptide) [P6]: binds.
SRDDIFTGGPLVLFRGSKTSNHDVHSMR (eluted with excess PEM peptide) [P26]: binds.
SIPSFSMWLNQLGSAALPSKGNSQDRSD (eluted with excess PEM peptide) [P49]: binds.
ILGWPFLTGLGDSTVHPRGRKGTDPS (eluted with excess PEM peptide) [P24]: binds.

Target: T1, PEM peptide
Test: phage panning on PEM peptide, DC43 library, eluted with excess PEM peptide
Protocol: as §1
NTCWTDLFWHGLPGGDLPRDGCGLPSELTTHPSRERRDASEN [MA-13]: binds.
B1: binds.
GSASSCFPNFTARGVTVGFFGCGSPAHPAAPRVLNPATDFPAP (eluted with excess PEM peptide) [MP-2]: binds.
VFRRTARSSRPIGATVFPWYGCGNSNDETLPHHDSPPSFFLGA (eluted with excess PEM peptide) [MP-22]: binds.
